Results reported in patent US20260250325A1, “Antiviral Polypeptide Membrane Fusion Inhibitor, and Preparation Method and Application Thereof” (priority 2025, published 2026).
Residue numbers refer to the chain shown, from its start. Where a SMILES comes first, the peptide text is derived from it. The star is where a group is joined. X1 = CC(C)CCCC(C)C1CCC2C3CC=C4CC(OC(=O)CCC(=O)*)CCC4(C)C3CCC12C

T1: F protein of RSV A long virus strain (respiratory syncytial virus, RSV A long virus strain), P12568
T1 chain: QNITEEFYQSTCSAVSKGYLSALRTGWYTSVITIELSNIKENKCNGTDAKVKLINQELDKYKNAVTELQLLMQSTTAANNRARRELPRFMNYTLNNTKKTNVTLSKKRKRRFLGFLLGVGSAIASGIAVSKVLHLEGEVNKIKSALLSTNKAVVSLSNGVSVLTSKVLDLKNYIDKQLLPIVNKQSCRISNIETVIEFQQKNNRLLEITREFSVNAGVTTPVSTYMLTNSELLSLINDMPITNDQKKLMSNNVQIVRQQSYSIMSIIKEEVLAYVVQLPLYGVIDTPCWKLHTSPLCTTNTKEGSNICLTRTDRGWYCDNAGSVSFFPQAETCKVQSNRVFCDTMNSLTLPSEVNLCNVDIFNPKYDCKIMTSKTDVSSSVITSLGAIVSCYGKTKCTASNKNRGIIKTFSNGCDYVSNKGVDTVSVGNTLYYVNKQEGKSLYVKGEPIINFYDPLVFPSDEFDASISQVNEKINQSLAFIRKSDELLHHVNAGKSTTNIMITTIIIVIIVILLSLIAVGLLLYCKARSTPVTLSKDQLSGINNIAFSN

B1: Compound 26 (peptide)
peptide: FDEEISQVNEKINQSLAFIRKSDELLHNVNAGKSTTEAAAKK
modifications: not checked
B2: Compound 30 (peptide)
peptide: YDELVFDASQVNEKINQSLEKIRKSDELLHNVEAAAKK
modifications: not checked
B3: Compound 17 (peptide)
peptide: DEFDKKIEEVNKKIEESLKKIEESDKKLEAAAKK
modifications: not checked
B4: Compound 20 (peptide)
peptide: SDEFDKKIEEVNKKIEESLKKIEESDKKLGSGSGK
modifications: not checked
B5: Compound 22 (peptide)
peptide: DEFDKKKIEEVNKKIEESLKKIEESDKKLEEVEAAAKK
modifications: not checked
B6: Compound 14 (peptide)
peptide: DEFDKKIEEVNKKIEESLKKIEESDKKLEEVNEAAAKK
modifications: not checked
B7: Compound 29 (peptide)
peptide: LVKKIDEFDASISQVNEKINQSLEEIRKSDELLHNVGSGSGK
modifications: not checked
B8: Compound 44 (peptide)
peptide: WDEFDKKIEEVNKKIEESLKKIEESDKKLHNVEAAAKK
modifications: not checked
B9: Compound 27 (peptide)
peptide: WDEFDASISQVNEKINQSLEEIRKSDELLHNVNAGLGSGSGK
modifications: not checked
B10: Compound 38 (peptide)
peptide: WDEFDASISQVNEKINQSLEEIRKSDELLHNVNALEAAAKK
modifications: not checked
B11: Compound 45 (peptide)
peptide: WDEFDASISQVNEKINQSLEEIRKSDELLHNEAAAKK
modifications: not checked
B12: Compound 25 (peptide)
peptide: YDELVFDASQVNEKINQSLEKIRKSDELLHNVGSGSGK
modifications: not checked
B13: Compound 51 (peptide)
peptide: SDELVNKKIEFDKKINQSLKKIEESDKKKLEAAAKK
modifications: not checked
B14: Compound 13 (peptide)
peptide: WDEFDKKIEEVNKKIEESLKKIEESDKKLEAAAKK
modifications: not checked
B15: Compound 16 (peptide)
peptide: B14 peptide with W1S
modifications: not checked
B16: Compound 28 (peptide)
peptide: DEFDASISQVNEKINQSLEEIRKSDELLHNEAAAKK
modifications: not checked

How the values were obtained:
[1] = Cytotoxicity test in HEp-2 cells (CCK8 cell viability); format: cell-based; details: human; HEp-2 cells, CCK8, 1 day; read-out: CC50
How it was run: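 HEp-2 cells seeded at 30,000/well, cultured overnight at 37° C./5% CO2, then exposed to diluted compound for 1 day in 0.5% DMSO. Viability read by CCK8, normalised to untreated-cell and medium-only controls; CC50 from four-parameter variable-slope fit.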

RSV A long virus strain = format: cell-based; details: RSV A long virus strain, HEp-2 cells, plaque reduction, 1 day; read-out: IC50
How it was run: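 HEp-2 cells (30000/well) infected with 100 PFU virus premixed 1 h with compound (8 concentrations, duplicate); after 2 h adsorption, cultured 1 day at 37 °C under 0.8% CMC overlay with compound. Plaques immunostained (RSV antibody, TrueBlue) and counted; IC50 and CC50 by non-linear fitting of % inhibition versus virus and cell controls.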

[2] = molecular target: hPIV-N51 (139-189) (human parainfluenza virus (hPIV))
Chain of hPIV-N51 (139-189) (human parainfluenza virus (hPIV)) (P06828 139-189): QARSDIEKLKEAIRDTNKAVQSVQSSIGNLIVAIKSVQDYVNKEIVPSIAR

[3] = substrate: F protein of hMPV virus strain B1 (human metapneumovirus, strain B1); experiment: cell-based or functional assay
[4] = substrate: F protein of hMPV virus strain A2 (human metapneumovirus, strain A2); experiment: cell-based or functional assay
[5] = substrate: F protein of hPIV Type 3 (hPIV3 C243) (human parainfluenza virus type 3, strain C243); experiment: cell-based or functional assay
[6] = molecular target: T1, F protein of RSV A long virus strain …; experiment: cell-based or functional assay

Molecule | CC50 at 1 day [1] [nM] | IC50 (RSV A long virus strain) [nM] | Kd [2] [nM] | EC50 (nM), plaque reduction, hMPV B1, Vero cells [3] [nM] | EC50 (nM), plaque reduction, hMPV A2, Vero cells [4] [nM] | EC50 (nM), plaque reduction, hPIV3 C243, LLC-MK2 cells [5] [nM] | IC50/nM, Cell fusion inhibition activity (plaque reduction, RSV A long strain, HEp-2 cells) [6] [nM]
CC[C@H](C)[C@H](NC(=O)[C@H](CCCCN)NC(=O)[C@H](CCCCN)NC(=O)[C@H](CC(C)C)NC(=O)[C@H](CO)NC(=O)[C@H](CCC(=O)O)NC(=O)[C@H](CCC(=O)O)NC(=O)[C@@H](NC(=O)[C@H](CCCCN)NC(=O)[C@H](CCCCN)NC(=O)[C@H](CC(N)=O)NC(=O)[C@@H](NC(=O)[C@H](CCC(=O)O)NC(=O)[C@H](CCC(=O)O)NC(=O)[C@@H](NC(=O)[C@H](CCCCN)NC(=O)[C@H](CCCCN)NC(=O)[C@H](CC(=O)O)NC(=O)[C@H](Cc1ccccc1)NC(=O)[C@H](CCC(=O)O)NC(=O)[C@H](CC(=O)O)NC(=O)[C@H](Cc1c[nH]c2ccccc12)NC(C)=O)[C@@H](C)CC)C(C)C)[C@@H](C)CC)C(=O)N[C@@H](CCC(=O)O)C(=O)N[C@@H](CCC(=O)O)C(=O)N[C@@H](CO)C(=O)N[C@@H](CC(=O)O)C(=O)N[C@@H](CCCCN)C(=O)N[C@@H](CCCCN)C(=O)N[C@@H](CC(C)C)C(=O)N[C@@H](CCC(=O)O)C(=O)N[C@@H](CCC(=O)O)C(=O)N[C@H](C(=O)N[C@@H](CC(N)=O)C(=O)N[C@@H](CCCCN)C(=O)N[C@@H](CCCCN)C(=O)N[C@@H](CC(C)C)C(N)=O)C(C)C [Compound 5] (Ac-WDEFDKKIEEVNKKIEESLKKIEESDKKLEEVNKKL-NH2) | > 8000 | 1120 |  |  |  |  | 
CC[C@H](C)[C@H](NC(=O)[C@H](CO)NC(C)=O)C(=O)N[C@@H](CO)C(=O)N[C@@H](CCC(N)=O)C(=O)N[C@H](C(=O)N[C@@H](CC(N)=O)C(=O)N[C@@H](CCC(=O)O)C(=O)N[C@@H](CCCCN)C(=O)N[C@H](C(=O)N[C@@H](CC(N)=O)C(=O)N[C@@H](CCC(=O)O)C(=O)N[C@H](C(=O)N[C@@H](CCC(N)=O)C(=O)N[C@@H](CO)C(=O)N[C@@H](CC(C)C)C(=O)N[C@@H](CCC(=O)O)C(=O)N[C@@H](CCC(=O)O)C(=O)N[C@@H](CCCCN)C(=O)N[C@@H](CO)C(=O)N[C@@H](CC(=O)O)C(=O)N[C@@H](CCCCN)C(=O)N[C@@H](CC(C)C)C(=O)N[C@@H](CC(C)C)C(=O)N[C@@H](CCCCN)C(=O)N[C@@H](CO)C(=O)N[C@@H](CCC(=O)O)C(=O)N[C@@H](C)C(=O)N[C@@H](C)C(=O)N[C@@H](C)C(=O)N[C@@H](CCCCN)C(=O)N[C@@H](CCCCNC(=O)CCC(=O)OC1CCC2(C)C(=CCC3C2CCC2(C)C(C(C)CCCC(C)C)CCC32)C1)C(N)=O)[C@@H](C)CC)[C@@H](C)CC)C(C)C (stereo partly drawn) [Compound 35] (Ac-SISQVNEKINEIQSLEEKSDKLLKSEAAAKK(X1)-NH2) | 5100 | 5530 |  |  |  |  | 
B1 |  |  | 2580 | 2.85 | 103 | 1.35 | 12.8
B2 |  |  | 1020 | 51.3 | 94.8 | 48.2 | 14.9
B3 |  |  | 314 | 3.61 | 8.78 | 52.6 | 17.6
B4 |  |  | 6800 | 4.27 | 7.47 | 59.5 | 19.8
B5 |  |  | 20800 | 18 | 88.4 | 65.4 | 11.3
B6 |  |  | 495 | 5.36 | 18.9 | 31.4 | 9.9
B7 |  |  | 1730 | 11.1 | 41.6 | 26.3 | 19.3
B8 |  |  | 6860 | 6.6 | 14.6 | 27.9 | 12.4
B9 |  |  | 812 | 10.5 | 78.3 | 27.2 | 25.7
B10 |  |  | 24500 | 16.6 | 128 | 26.4 | 14.6
B11 |  |  | 178000 | 13.1 | 200 | 36.3 | 12.2
B12 |  |  | 74600 | 38.1 | 86.4 | 29.4 | 28.7
B13 |  |  | 51.4 | 3.82 | 18.8 | 18.8 | 9.9
B14 |  |  | 2280 | 6.18 | 11.7 | 35.6 | 13
B15 |  |  | 5400 | 4.5 | 7.35 | 59 | 10.3
B16 |  |  | 983000 | 13.8 | 58.6 | 54.4 | 12.4
